Laboratory results taken from patent publication US20240287172A1 (SCIRHOM, published 2024).

How the values were obtained:
hiR2-FL-T586A-T7 = molecular target: T1, hiR2-FL-T586A-T7 (human, UniProt Q6PJF5 1-856); experiment: FACS on MEF-DKO cells expressing the variant, 3 µg/ml antibody
T1 sequence: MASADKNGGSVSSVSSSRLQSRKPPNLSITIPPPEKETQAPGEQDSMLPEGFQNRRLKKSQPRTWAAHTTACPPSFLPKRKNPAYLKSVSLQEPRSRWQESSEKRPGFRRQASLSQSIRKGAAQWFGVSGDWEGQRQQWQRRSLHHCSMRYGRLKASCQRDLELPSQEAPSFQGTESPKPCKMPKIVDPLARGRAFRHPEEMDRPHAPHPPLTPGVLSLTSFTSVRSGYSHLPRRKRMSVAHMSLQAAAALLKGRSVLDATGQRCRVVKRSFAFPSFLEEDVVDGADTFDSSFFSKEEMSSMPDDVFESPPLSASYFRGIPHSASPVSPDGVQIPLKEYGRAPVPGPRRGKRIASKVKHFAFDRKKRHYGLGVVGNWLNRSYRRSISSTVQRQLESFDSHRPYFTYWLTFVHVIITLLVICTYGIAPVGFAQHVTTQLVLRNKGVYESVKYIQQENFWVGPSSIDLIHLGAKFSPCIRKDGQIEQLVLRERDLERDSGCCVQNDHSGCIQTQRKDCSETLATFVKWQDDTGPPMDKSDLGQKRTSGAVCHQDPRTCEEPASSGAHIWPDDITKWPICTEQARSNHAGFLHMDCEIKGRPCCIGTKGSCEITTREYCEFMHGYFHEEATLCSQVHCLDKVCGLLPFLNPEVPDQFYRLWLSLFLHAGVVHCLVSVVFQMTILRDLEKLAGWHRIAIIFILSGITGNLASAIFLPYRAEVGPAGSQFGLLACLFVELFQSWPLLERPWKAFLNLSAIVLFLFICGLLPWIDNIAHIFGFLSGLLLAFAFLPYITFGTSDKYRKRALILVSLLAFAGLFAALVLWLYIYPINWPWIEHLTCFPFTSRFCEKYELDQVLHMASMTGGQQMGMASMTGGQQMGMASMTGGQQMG
Outline: (§1)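 Read-out is PE fluorescence by flow cytometry after two-step staining: antibody at 3 μg/ml for 1 hour on ice, then PE-labelled goat anti-mouse IgG F(ab′)2 (1:100) for 1 hour on ice.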

hiR2-FL-P532A-T7 = molecular target: T2, hiR2-FL-P532A-T7 (human, UniProt Q6PJF5 1-856); experiment: as above
T2 sequence: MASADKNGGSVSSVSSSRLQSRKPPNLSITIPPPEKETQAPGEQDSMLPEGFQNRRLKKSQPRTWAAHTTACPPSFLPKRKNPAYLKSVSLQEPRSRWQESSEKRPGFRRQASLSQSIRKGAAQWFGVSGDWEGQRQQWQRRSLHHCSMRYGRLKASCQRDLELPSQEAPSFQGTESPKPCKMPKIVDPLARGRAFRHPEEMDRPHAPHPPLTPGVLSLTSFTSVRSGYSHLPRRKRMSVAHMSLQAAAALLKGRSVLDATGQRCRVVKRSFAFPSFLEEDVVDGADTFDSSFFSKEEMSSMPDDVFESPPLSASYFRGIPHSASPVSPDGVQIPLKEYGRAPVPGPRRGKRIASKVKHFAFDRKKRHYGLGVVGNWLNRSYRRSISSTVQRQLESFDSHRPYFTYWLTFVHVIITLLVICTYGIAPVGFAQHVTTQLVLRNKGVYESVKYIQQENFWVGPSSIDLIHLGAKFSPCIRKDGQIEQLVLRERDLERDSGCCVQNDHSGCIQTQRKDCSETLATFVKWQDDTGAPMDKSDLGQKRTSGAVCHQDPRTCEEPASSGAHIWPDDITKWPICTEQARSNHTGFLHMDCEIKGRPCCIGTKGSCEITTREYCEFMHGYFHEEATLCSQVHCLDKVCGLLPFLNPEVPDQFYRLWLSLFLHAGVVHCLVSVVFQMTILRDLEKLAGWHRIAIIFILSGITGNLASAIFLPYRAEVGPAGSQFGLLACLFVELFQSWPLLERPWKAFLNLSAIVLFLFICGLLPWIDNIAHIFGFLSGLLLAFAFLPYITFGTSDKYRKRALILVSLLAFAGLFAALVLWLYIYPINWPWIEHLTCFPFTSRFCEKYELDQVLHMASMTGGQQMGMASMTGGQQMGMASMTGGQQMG
Outline: as §1

B1: antibody 5 (antibody, V domains shown)
VH: QVTLKESGPGILQPSQTLSLTCSFSGFSLSTFGMGVGWIRQPSGKGLEWLAHIWWDDEKYYNSALKSRLTISKATSKNQAFLKIANVDTADTATYYCARISNYGSNYWYFNVWGTGTTVTVSS
VL: QVVLTQSPALMSASPGEKVTMTCSAGSSVSCMYWYQQKPGSSPRVLIYDTSNLASGVPARFTGSGSGTSYSLTISRMEAEDAASYYCQQWNSYPLTFGAGTKLELK
notes: mouse IgG, kappa light chain; also called clone #5; purified antibody 5
With B1 the “loss of binding vs wild type” value (hiR2-FL-T586A-T7) was ≥ 30% and the “loss of binding vs wild type” value (hiR2-FL-P532A-T7) was ≥ 30%.

B2: antibody 3 (antibody, V domains shown)
VH: QVTLKESGPGILQPSQTLSLTCSFSGFSLTTFAMGIGWVRQPSGKGLEWLAHIWWDGEKYNNPVLKSRLTISKDTSKNQVFLRIANVDTPDTATYYCARISSIYYIIDNWGQGTSVTVSS
VL: DIVLTQSPATLSVTPGHSVSLSCRASQSISNNLHWYQKKSHESPRLLIKYVSQSISGIPSRFSGSGSGTDFTLSINSVETEDFGMYFCQQSYNWPLTFGAGTKLELK
notes: mouse IgG, kappa light chain; also called clone #3; purified antibody 3
With B2 the “loss of binding vs wild type” value (hiR2-FL-T586A-T7) was ≥ 30%.

B3: antibody 44 (antibody, V domains shown)
VH: QVTLKESGPGILQPSQTLSLTCSFSGFSLSTFGMGVGWIRQPSEKGLEWLAHIWWDDDKYYNPALKSRLTISKDTSKNQIFLKITNVDTAETATYYCSRIGNYGSNYWYFDVWGTGTTVTVSS
VL: QIVLTQSPAVMSASPGEKVTMTCTASSSVYYMYWYQQTPGSSPRLLIYDTSNLASGVPVRFSGSGSGTSYSLTISRMEAEDAATYYCQQWNTYPLTFGAGTKLELK
notes: mouse IgG, kappa light chain; also called clone #44; purified antibody 44
For B3, the “loss of binding vs wild type” value (hiR2-FL-P532A-T7) was ≥ 30%.
